These results are taken from article PMC9063426, “MAP kinases differentially bind and phosphorylate NOS3 via two unique NOS3 sites” (FEBS Open Bio, 2022).

Usually pKd stands for −log10 of the Kd, conventionally taken in molar units. A word on the koff: it is the first-order rate constant of dissociation. Read a high koff as a short-lived complex. What is called kon is the rate constant with which the complex forms. High values mean faster complex formation, low ones slower complex formation.

pKd: −log10 of the molar value.

For experiment [1], the target named is AI peptide (NOS3 autoinhibitory loop site) (human). Description: BLI; N-terminally biotinylated NOS3 peptides on streptavidin sensors, inactive MAP kinases as analytes at 31-1000 nM; 25 °C; PBS with 10% glycerol, 0.005% tween, 1 mM DTT; global one-state association-then-dissociation fit.
Experiment [2] concerns the target NtMAP peptide (NOS3 N-terminal MAP kinase site) (human). The experiment is described as above.
Experiment [3] has as its target NOS3 AI peptide (autoinhibitory loop site), biotinylated (human). Description: BLI; N-terminally biotinylated NOS3 peptides on streptavidin sensors, inactive MAP kinases as analytes (31 to 1000 nM); 25 °C; PBS with 10% glycerol, 0.005% tween, 1 mM DTT; global one-state association-then-dissociation fit. On the technique in general: BLI is a label-free optical method that tracks binding on a fibre tip over time.

In experiment [4] the target is NOS3 NtMAP peptide (N-terminal MAP kinase site), biotinylated (human). Described as above.
The target of the next experiment is ERK2 (UniProt P63086). Description: BLI, biotinylated peptide on streptavidin sensor.

For the substance “ERK2, inactive (unphosphorylated), His-purified (from UniProt P63086 1-358) (enzyme)”, the pKd in experiment [1] was 6.77; in experiment [2] it was 6.03. For the same substance, the koff in experiment [1] was 0.002 s⁻¹; in experiment [2], 0.062 s⁻¹; in experiment [3] it was 0.00207 s⁻¹; in experiment [4], 0.00623 s⁻¹. Besides, the kon in experiment [1] is 12000 M⁻¹ s⁻¹; in experiment [2] it was 6600 M⁻¹ s⁻¹; in experiment [3] it was 12100 M⁻¹ s⁻¹; in experiment [4], 6600 M⁻¹ s⁻¹.

For “GST-JNK1α1, inactive (unphosphorylated), made in house (from UniProt P45983-2 1-384) (enzyme)”, the pKd is 8.52 in experiment [1] and 7.42 in experiment [2]. The kon in experiment [1] is 84000 M⁻¹ s⁻¹; in experiment [2], 14000 M⁻¹ s⁻¹; in experiment [3], 84600 M⁻¹ s⁻¹; in experiment [4], 14100 M⁻¹ s⁻¹. In addition, the koff was 0.00054 s⁻¹ in experiment [2], 0.00025 s⁻¹ in experiment [3] and 0.000543 s⁻¹ in experiment [4].

As to “NOS3 (eNOS) NtMAP site (from UniProt P29474) NtMAP pS114 peptide”, the KD result with ERK2 (reference: unphosphorylated NtMAP peptide, sites S114) is given as “lost; reference 940”.

On to “NOS3 (eNOS) autoinhibitory (AI) loop site (from UniProt P29474) AI pS633 peptide”, for which, in the experiment with ERK2 (reference: unphosphorylated AI peptide, sites S633), the KD result is given as “lost; reference 170”.
